Experimental data taken from patent US20240279318A1 (NANJING LEGEND BIOTECH, published 2024).

B1: AS170036 VL1VH1-56N98F108D (scFv)
scFv: QSALTQPRSVSGSPGQSVTISCAGTSSDVGSENYVSWYQQHPGKAPKLMIYQVNKRASGVPDRFSGSKSGNTASLTISGLQAEDEADYYCASYRSSDFNIVFGGGTKLTVLGGGGSGGGGSGGGGSEVQLVESGGGLVQPGGSLRLSCAASGFTFSSYAMSWVRQAPGKGLEWVSTINSGTNSPYYADSVKGRFTISRDNSKNTLYLQMNSLRAEDTAVYYCAKNFFDGSWFLDPPAMDYWGQGTLVTVSSHHHHHH
notes: also called 50-AS170036 VL1VH1-56N98F108D
B2: AS170036 VL1VH1-56N98I108A (scFv)
scFv: QSALTQPRSVSGSPGQSVTISCAGTSSDVGSENYVSWYQQHPGKAPKLMIYQVNKRASGVPDRFSGSKSGNTASLTISGLQAEDEADYYCASYRSSDINIVFGGGTKLTVLGGGGSGGGGSGGGGSEVQLVESGGGLVQPGGSLRLSCAASGFTFSSYAMSWVRQAPGKGLEWVSTINSGTNSPYYADSVKGRFTISRDNSKNTLYLQMNSLRAEDTAVYYCAKNFFDGSWFLAPPAMDYWGQGTLVTVSSHHHHHH
notes: also called 52-AS170036 VL1VH1-56N98I108A
B3: AS170036 VL1VH1-56N98F108S (scFv)
scFv: QSALTQPRSVSGSPGQSVTISCAGTSSDVGSENYVSWYQQHPGKAPKLMIYQVNKRASGVPDRFSGSKSGNTASLTISGLQAEDEADYYCASYRSSDFNIVFGGGTKLTVLGGGGSGGGGSGGGGSEVQLVESGGGLVQPGGSLRLSCAASGFTFSSYAMSWVRQAPGKGLEWVSTINSGTNSPYYADSVKGRFTISRDNSKNTLYLQMNSLRAEDTAVYYCAKNFFDGSWFLSPPAMDYWGQGTLVTVSSHHHHHH
notes: also called 51-AS170036 VL1VH1-56N98F108S
B4: AS170036 VL1VH1-56N98Q108D (scFv)
scFv: QSALTQPRSVSGSPGQSVTISCAGTSSDVGSENYVSWYQQHPGKAPKLMIYQVNKRASGVPDRFSGSKSGNTASLTISGLQAEDEADYYCASYRSSDQNIVFGGGTKLTVLGGGGSGGGGSGGGGSEVQLVESGGGLVQPGGSLRLSCAASGFTFSSYAMSWVRQAPGKGLEWVSTINSGTNSPYYADSVKGRFTISRDNSKNTLYLQMNSLRAEDTAVYYCAKNFFDGSWFLDPPAMDYWGQGTLVTVSSHHHHHH
notes: also called 56-AS170036 VL1VH1-56N98Q108D
B5: AS170036 VL1VH1-56N98Q108A (scFv)
scFv: QSALTQPRSVSGSPGQSVTISCAGTSSDVGSENYVSWYQQHPGKAPKLMIYQVNKRASGVPDRFSGSKSGNTASLTISGLQAEDEADYYCASYRSSDQNIVFGGGTKLTVLGGGGSGGGGSGGGGSEVQLVESGGGLVQPGGSLRLSCAASGFTFSSYAMSWVRQAPGKGLEWVSTINSGTNSPYYADSVKGRFTISRDNSKNTLYLQMNSLRAEDTAVYYCAKNFFDGSWFLAPPAMDYWGQGTLVTVSSHHHHHH
notes: also called 55-AS170036 VL1VH1-56N98Q108A
B6: AS170036 VL1VH1-56N98I108S (scFv)
scFv: QSALTQPRSVSGSPGQSVTISCAGTSSDVGSENYVSWYQQHPGKAPKLMIYQVNKRASGVPDRFSGSKSGNTASLTISGLQAEDEADYYCASYRSSDINIVFGGGTKLTVLGGGGSGGGGSGGGGSEVQLVESGGGLVQPGGSLRLSCAASGFTFSSYAMSWVRQAPGKGLEWVSTINSGTNSPYYADSVKGRFTISRDNSKNTLYLQMNSLRAEDTAVYYCAKNFFDGSWFLSPPAMDYWGQGTLVTVSSHHHHHH
notes: also called 54-AS170036 VL1VH1-56N98I108S
B7: AS170036 VL1VH1-56N98I108D (scFv)
scFv: QSALTQPRSVSGSPGQSVTISCAGTSSDVGSENYVSWYQQHPGKAPKLMIYQVNKRASGVPDRFSGSKSGNTASLTISGLQAEDEADYYCASYRSSDINIVFGGGTKLTVLGGGGSGGGGSGGGGSEVQLVESGGGLVQPGGSLRLSCAASGFTFSSYAMSWVRQAPGKGLEWVSTINSGTNSPYYADSVKGRFTISRDNSKNTLYLQMNSLRAEDTAVYYCAKNFFDGSWFLDPPAMDYWGQGTLVTVSSHHHHHH
notes: also called 53-AS170036 VL1VH1-56N98I108D

Legend:
[1] = biological target: T1, AFP158/HLA-A*02:01 complex (human); assay: SPR, fold vs AS170036 VL1VH1;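 further: crude scFv muteins immobilised on a sensor chip, peptide–MHC complex passed over at several concentrations, binding then buffer-driven dissociation, KD estimated from on- and off-rates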
T1 construct: flowed as analyte in SPR

[2] = biological target: T1, AFP158/HLA-A*02:01 complex; assay: SPR, crude scFv captured, pMHC analyte;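 further: complex injected at several concentrations over the chip, association phase then running buffer for dissociation, KD derived from on- and off-rates computed from both curves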

| Binder | Affinity increase [1] | Kd [2] | koff [2] | kon [2] |
| --- | --- | --- | --- | --- |
| B1 | 36.4 fold | 6.2 nM | 0.0019 s⁻¹ | 310000 M⁻¹ s⁻¹ |
| B2 | 62 fold | 3.6 nM | 0.00093 s⁻¹ | 260000 M⁻¹ s⁻¹ |
| B3 | 17.6 fold | 13 nM | 0.0028 s⁻¹ | 210000 M⁻¹ s⁻¹ |
| B4 | 39.1 fold | 5.8 nM | 0.0015 s⁻¹ | 260000 M⁻¹ s⁻¹ |
| B5 | 54.1 fold | 4.2 nM | 0.001 s⁻¹ | 240000 M⁻¹ s⁻¹ |
| B6 | 22.3 fold | 10 nM | 0.0019 s⁻¹ | 190000 M⁻¹ s⁻¹ |
| B7 | 44.4 fold | 5.1 nM | 0.0014 s⁻¹ | 280000 M⁻¹ s⁻¹ |
